The record followed here is IntAct's records for PubMed 16203728.

B1: Erbin (Homo sapiens), Q96RT1-2 (parent)
chain: MTTKRSLFVRLVPCRCLRGEEETVTTLDYSHCSLEQVPKEIFTFEKTLEELYLDANQIEELPKQLFNCQSLHKLSLPDNDLTTLPASIANLINLRELDVSKNGIQEFPENIKNCKVLTIVEASVNPISKLPDGFSQLLNLTQLYLNDAFLEFLPANFGRLTKLQILELRENQLKMLPKTMNRLTQLERLDLGSNEFTEVPEVLEQLSGLKEFWMDANRLTFIPGFIGSLKQLTYLDVSKNNIEMVEEGISTCENLQDLLLSSNSLQQLPETIGSLKNITTLKIDENQLMYLPDSIGGLISVEELDCSFNEVEALPSSIGQLTNLRTFAADHNYLQQLPPEIGSWKNITVLFLHSNKLETLPEEMGDMQKLKVINLSDNRLKNLPFSFTKLQQLTAMWLSDNQSKPLIPLQKETDSETQKMVLTNYMFPQQPRTEDVMFISDNESFNPSLWEEQRKQRAQVAFECDEDKDEREAPPREGNLKRYPTPYPDELKNMVKTVQTIVHRLKDEETNEDSGRDLKPHEDQQDINKDVGVKTSESTTTVKSKVDEREKYMIGNSVQKISEPEAEISPGSLPVTANMKASENLKHIVNHDDVFEESEELSSDEEMKMAEMRPPLIETSINQPKVVALSNNKKDDTKETDSLSDEVTHNSNQNNSNCSSPSRMSDSVSLNTDSSQDTSLCSPVKQTHIDINSKIRQEDENFNSLLQNGDILNSSTEEKFKAHDKKDFNLPEYDLNVEERLVLIEKSVDSTATADDTHKLDHINMNLNKLITNDTFQPEIMERSKTQDIVLGTSFLSINSKEETEHLENGNKYPNLESVNKVNGHSEETSQSPNRTEPHDSDCSVDLGISKSTEDLSPQKSGPVGSVVKSHSITNMEIGGLKIYDILSDNGPQQPSTTVKITSAVDGKNIVRSKSATLLYDQPLQVFTGSSSSSDLISGTKAIFKFDSNHNPEEPNIIRGPTSGPQSAPQIYGPPQYNIQYSSSAAVKDTLWHSKQNPQIDHASFPPQLLPRSESTENQSYAKHSANMNFSNHNNVRANTAYHLHQRLGPARHGEMWAISPNDRLIPAVTRSTIQRQSSVSSTASVNLGDPGSTRRAQIPEGDYLSYREFHSAGRTPPMMPGSQRPLSARTYSIDGPNASRPQSARPSINEIPERTMSVSDFNYSRTSPSKRPNARVGSEHSLLDPPGKSKVPRDWREQVLRHIEAKKLEKMPLSNGQMGQPLRPQANYSQIHHPPQASVARHPSREQLIDYLMLKVAHQPPYTQPHCSPRQGHELAKQEIRVRVEKDPELGFSISGGVGGRGNPFRPDDDGIFVTRVQPEGPASKLLQPGDKIIQANGYSFINIEHGQAVSLLKTFQNTVELIIVREVSS

Variants of B1 are the subject of this experiment. Particulars: with nod2_human NOD2, Q9HC29.
Sequence of nod2_human NOD2, Q9HC29 (Q9HC29 whole entry): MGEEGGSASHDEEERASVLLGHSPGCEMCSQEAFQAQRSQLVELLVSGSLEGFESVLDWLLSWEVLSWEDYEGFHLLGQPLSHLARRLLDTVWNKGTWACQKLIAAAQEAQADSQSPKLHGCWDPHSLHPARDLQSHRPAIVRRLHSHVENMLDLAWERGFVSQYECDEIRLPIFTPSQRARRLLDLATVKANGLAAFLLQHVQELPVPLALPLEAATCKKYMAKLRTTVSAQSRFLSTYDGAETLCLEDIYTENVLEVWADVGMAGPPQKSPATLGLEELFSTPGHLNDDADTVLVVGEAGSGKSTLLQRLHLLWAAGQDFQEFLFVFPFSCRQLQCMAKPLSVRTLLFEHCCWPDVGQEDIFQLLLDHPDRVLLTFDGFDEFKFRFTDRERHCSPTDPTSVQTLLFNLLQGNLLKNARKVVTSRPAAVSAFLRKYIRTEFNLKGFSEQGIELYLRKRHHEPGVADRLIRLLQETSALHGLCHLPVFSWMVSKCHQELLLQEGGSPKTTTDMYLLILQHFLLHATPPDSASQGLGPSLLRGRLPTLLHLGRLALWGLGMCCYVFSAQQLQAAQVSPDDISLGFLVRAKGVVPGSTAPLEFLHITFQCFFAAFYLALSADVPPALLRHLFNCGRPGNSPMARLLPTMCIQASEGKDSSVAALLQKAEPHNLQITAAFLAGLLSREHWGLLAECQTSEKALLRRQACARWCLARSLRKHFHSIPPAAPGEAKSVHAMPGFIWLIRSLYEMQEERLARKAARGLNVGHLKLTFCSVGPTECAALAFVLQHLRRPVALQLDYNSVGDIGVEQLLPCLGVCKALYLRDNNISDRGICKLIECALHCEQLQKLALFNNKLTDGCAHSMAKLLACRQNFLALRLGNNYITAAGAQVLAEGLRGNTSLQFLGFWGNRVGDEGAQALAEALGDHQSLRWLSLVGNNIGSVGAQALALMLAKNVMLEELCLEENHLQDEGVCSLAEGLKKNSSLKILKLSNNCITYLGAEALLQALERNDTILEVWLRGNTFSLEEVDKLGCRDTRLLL
Consider P315L, for which the “effect of a mutation on the interaction” value was “decreasing interaction”.
